Test results: paper PMC4661071

Key:
[1] = target: EPCR R81A on stably transfected CHO745 cells (UniProt Q9UNN8); experiment: flow cytometry on cells
[2] = target: wild-type EPCR on stably transfected CHO745 cells (UniProt Q9UNN8); experiment: flow cytometry on cells
[3] = target: recombinant soluble EPCR (extracellular region, residues 18–210), biotinylated (UniProt Q9UNN8); experiment: BLI

Var19CIDRα1.1 recombinant protein (from UniProt A3R6S3 1-3373) (domain or fragment)
decrease of binding relative to wild type EPCR [1]: 90% | MFI of Fl-APC on the cells with 250 µg/ml of the CIDR domain (1329 without) [2]: 746 | double positive cells (CIDR and Fl-APC) at 250 µg/ml of the CIDR domain [2]: 69%

Var06CIDRα1.1 recombinant protein (domain or fragment)
Kd [3]: 98 nM | MFI of Fl-APC on the cells with 250 µg/ml of the CIDR domain (1329 without) [2]: 429 | double positive cells (CIDR and Fl-APC) at 250 µg/ml of the CIDR domain [2]: 62%

Var07CIDRα1.4 recombinant protein (domain or fragment)
decrease of binding relative to wild type EPCR [1]: 80% | MFI of Fl-APC on the cells with 100 µg/ml of the CIDR domain (1329 without) [2]: 385 | double positive cells (CIDR and Fl-APC) at 100 µg/ml of the CIDR domain [2]: 28%

fluorescein-labelled activated protein C (Fl-APC) (from UniProt P04070 43-197; P04070 43-197) (enzyme)
MFI of Fl-APC, without CIDR domains [2]: 1330 | percent of cells that bound 50 µg/ml Fl-APC, without CIDR domains [2]: 78%

activated protein C (APC), unlabeled (from UniProt P04070 43-197; P04070 43-197) (enzyme)
mean fluorescence intensity (MFI) of APC labeling, without CIDR domains [2]: 994 | percent of CHO745-EPCR cells labeled for APC, without CIDR domains [2]: 76%
